This series is described as follows: Cysteine protease activity, cleavage of quenched fluorogenic substrate. It is filed as biochemical. Conditions: for Emission (w/o E-64): 50 μM substrate, 2 hours, excitation 380 nm, emission 460 nm; for Emission (w/E-64): pre-incubated 30 minutes with E-64 1 μg/ml. The protocol: Native Der f 1 is believed to be a cysteine protease, based on homology to papain; see, for example, Chua et al, 1992, J Exp Med 167, 175-182. The Der f 1 protein secreted as a mature form by recombinant cell P. pastoris HCY215 (i.e., P. pastoris strain X33 transformed with plasmid pBC128 containing nucleic acid molecule nDerf1909b (coding strand of SEQ ID NO:28) which encodes the pro-form of Der f 1 (amino acid sequence SEQ ID NO:29)) was tested for cysteine protease activity in the following manner. Three concentrations of protein were tested for their abilities to cleave an artificial substrate in the presence or absence of a cysteine protease inhibitor. Specifically, three pairs of samples containing 0.56 μg, 1.1 μg, or 5.6 μg of P. pastoris-expressed Der f 1 protein, respectively, were incubated for 30 minutes at room temperature in 20 μl of 50 mM Tris-HCl, pH 8. One member of each pair also contained the irreversible cysteine protease inhibitor E-64 at a concentration of 1 μg/ml. After the pre-incubation, 100 μl of 50 μM quenched fluorogenic substrate z-Val-Leu-Arg-AMC (available from Enzyme Systems Products, Livermore, Calif.) was added to all six samples, and the samples were incubated for 2 hours at room temperature. Fluorescence was measured using a Perkin Elmer Luminescence Spectrometer (model #LS50B) at an excitation wavelength of 380nm and an emission wavelength of 460 nm.

B1: PDerf1303b: Recombinant Der f 1 expressed by P. pastoris HCY215 from nDerf1909b (pro-form, SEQ ID NO:29); actually secreted as mature form (protein, listed as Dermatophagoides farinae)
chain: RPASIKTFEEFKKAFNKNYATVEEEEVARKNFLESLKYVEANKGAINHLSDLSLDEFKNRYLMSAEAFEQLKTQFDLNAETSACRINSVNVPSELDLRSLRTVTPIRMQGGCGSCWAFSGVAATESAYLAYRNTSLDLSEQELVDCASQHGCHGDTIPRGIEYIQQNGVVEERSYPYVAREQRCRRPNSQHYGISNYCQIYPPDVKQIREALTQTHTAIAVIIGIKDLRAFQHYDGRTIIQHDNGYQPNYHAVNIVGYGSTQGDDYWIVRNSWDTTWGDSGYGYFQAGNNLMMIEQYPYVVIM
In the case of B1, the “Emission (w/o E-64)” value (0.56 micrograms rDer f 1) is 0.861, the “Emission (w/o E-64)” value (1.1 micrograms rDer f 1) is on record as 1.693 and the “Emission (w/o E-64)” value (5.6 micrograms rDer f 1) came out at 9.671. In addition, the “Emission (w/E-64)” value (0.56 micrograms rDer f 1) is on record as 0.302, the “Emission (w/E-64)” value (1.1 micrograms rDer f 1) is listed as 0.765 and the “Emission (w/E-64)” value (5.6 micrograms rDer f 1) was determined as 2.369. Moreover, the cysteine protease activity result (can be inhibited by pre-incubation with E-64) is reported as “exhibits cysteine protease activity”.

These data come from US8465945B2, “Method for production and use of mite group 1 proteins” (Merck Patent GmbH, priority 1999, dated 2013).
